Results on two proteins are retold here after article PMC12228687, “Harnessing protein language model for structure-based discovery of highly efficient and robust PET hydrolases” (Nature Communications, 2025).

Substrate in data set [1]: CCCC(=O)Oc1ccc([N+](=O)[O-])cc1
The experiment in a line: purified protein. The class given is biochemical, unidentified prokaryotic organism. To be noted: 10 mM potassium phosphate pH 8.0 (stock buffer), 50 °C, 3 min, 0.5 µg/mL enzyme, 0.2-1.8 mM pNPB.

Substrate in data set [2]: CCCC(=O)Oc1ccc([N+](=O)[O-])cc1
Briefly: purified protein. Conditions: 10 mM potassium phosphate pH 8.0 (stock buffer), 50 °C, 3 min, 0.5 µg/mL enzyme, 0.2-1.8 mM pNPB. The class given is biochemical, Kibdelosporangium banguiense.

B1: LCC (unidentified prokaryotic organism) (protein)
chain: QSNPYQRGPNPTRSALTADGPFSVATYTVSRLSVSGFGGGVIYYPTGTSLTFGGIAMSPGYTADASSLAWLGRRLASHGFVVLVINTNSRFDYPDSRASQLSAALNYLRTSSPSAVRARLDANRLAVAGHSMGGGGTLRIAEQNPSLKAAVPLTPWHTDKTFNTSVPVLIVGAEADTVAPVSQHAIPFYQNLPSTTPKVYVELDNASHFAPNSNNAAISVYTISWMKLWVDNDTRYRQFLCNVNDPALSDFRTNNRHCQ
notes: wild-type LCC (LCC-ICCG is a separate variant)
Regarding B1, in data set [1], the Michaelis-Menten constant (Km) amounted to 1053 ± 289 µM, the kcat was 0.186 ± 0.021 s⁻¹ and the kcat/Km is 208 ± 17 M⁻¹ s⁻¹.

B2: KbPETase (APET-14) (Kibdelosporangium banguiense) (protein)
chain: DEIGQAPTAANITGDGSFSTSSSAIFGQSGFGGGTAYYPNTAGKYPVVAFAPGFLSDWNALNWLGPRVASWGFVVVGVNTNTPFDFPDARGDQLLAALNWAVNSAPAAVRDKADGSRRGVSGWSMGGGGTLEALAKDTTGTVKAGVPLAPWHTNKTWSKVTEPVFIIGGQNDSVAAPASHAIPFYNSLGGPKSYLERAGADHFFPTKSNGTVSRAVVSFFKRHVSADTRFTPFLCGFSGLDVSNFRSNSC
notes: predicted signal peptide (SignalP) removed; N-terminal His-tag, pET-28a(+) NdeI/NotI; E. coli BL21(DE3); Ni-NTA purified
For B2, in data set [2], the Km is 1040 ± 201 µM, the catalytic constant (kcat) is 0.27 ± 0.021 s⁻¹ and the kcat/Km was found to be 263 ± 31 M⁻¹ s⁻¹.

One may read the Km as the concentration of substrate that gives half-maximal velocity. Usually kcat stands for the number of substrate molecules converted per active site and unit of time at saturation. Usually kcat/Km stands for the turnover number divided by the Michaelis constant.
